Reference: patent US20220411523A1 (HEFEI HANKEMAB BIOTECHNOLOGY, published 2022)
Where two headings read alike, the source gives them in different places. Values belong to the binder of their own block, whether it stands above or below them.

Legend:
[1] = target: T1, human 4-1BB full length, on the cell surface (human, UniProt Q07011 24-255); experiment: FACS, CHO-K1-hu4-1BB cells
T1 construct: also called CHO-K1-hu4-1BB; WT (Human 4-1BB full length, Expi293 transient)

[2] = target: T2, h4-1BB-His antigen (Acro company, product number: Q07011-1) (human, UniProt Q07011 24-186); experiment: BLI (Fortebio), h4-1BB-His
T2 construct: Q07011-1 is printed as a product number; not shown: His tag

[3] = target: T3, monkey 4-1BB on the cell membrane surface of CHO-K1 cells (monkey, UniProt Q07011 24-255 (human entry)); experiment: FACS, CHO-K1-cy4-1BB cells
T3 construct: also called CHO-K1-cy4-1BB
T3 chain: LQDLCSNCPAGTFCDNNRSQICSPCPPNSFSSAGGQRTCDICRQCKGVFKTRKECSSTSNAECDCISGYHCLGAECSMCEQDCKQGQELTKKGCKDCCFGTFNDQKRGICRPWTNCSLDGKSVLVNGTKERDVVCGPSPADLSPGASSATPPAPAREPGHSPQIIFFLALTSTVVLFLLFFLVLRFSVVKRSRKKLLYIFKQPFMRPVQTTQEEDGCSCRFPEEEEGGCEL

[4] = target: T1, human 4-1BB full length, on the cell …; experiment: FACS (MFI) on cells transiently transfected with human 4-1BB WT, antibody titrated from about 0.04 to 10 µg/ml
[5] = target: T4, monkey 4-1BB (Cy4-1BB) (SEQ ID No.6), coated on the ELISA plate (monkey, UniProt Q07011 24-186 (human entry), limits assumed); experiment: ELISA, coated monkey 4-1BB
T4 chain: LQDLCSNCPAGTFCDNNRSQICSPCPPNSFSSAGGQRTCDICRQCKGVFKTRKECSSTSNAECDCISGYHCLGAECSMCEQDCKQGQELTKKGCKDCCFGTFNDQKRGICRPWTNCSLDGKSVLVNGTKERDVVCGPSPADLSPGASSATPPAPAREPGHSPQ

[6] = target: T1, human 4-1BB full length, on the cell …; experiment: FACS, CHO-K1-hu4-1BB cells; remark: listed apart in the source
[7] = target: T5, human 4-1BB M101R, on the cell surface (human, UniProt Q07011 24-255); experiment: FACS (MFI) on cells transiently transfected with human 4-1BB M101R, antibody titrated from about 0.04 to 10 µg/ml
T5 construct: Point mutant of human 4-1BB on transiently transfected cells

[8] = target: T6, human 4-1BB (SEQ ID No.5), coated on the ELISA plate (human, UniProt Q07011 24-186, limits assumed); experiment: ELISA, coated human 4-1BB
T6 construct: also called CD137

[9] = target: T7, human 4-1BB N42R, on the cell surface (human, UniProt Q07011 24-255); experiment: FACS (MFI) on cells transiently transfected with human 4-1BB N42R, antibody titrated from about 0.04 to 10 µg/ml
T7 construct: Point mutant of human 4-1BB on transiently transfected cells

[10] = target: T8, human 4-1BB I132R, on the cell surface (human, UniProt Q07011 24-255); experiment: FACS (MFI) on cells transiently transfected with human 4-1BB I132R, antibody titrated from about 0.04 to 10 µg/ml
T8 construct: Point mutant of human 4-1BB on transiently transfected cells

[11] = target: T1, human 4-1BB full length, on the cell …; experiment: FACS competition, CHO-K1-hu4-1BB; labelled Bio-Hanke10F4 1.5 µg/ml fixed, competitor varied
[12] = target: T1, human 4-1BB full length, on the cell …; experiment: FACS competition, CHO-K1-hu4-1BB; labelled Bio-4-1BBL 2 µg/ml fixed, competitor varied
[13] = target: T1, human 4-1BB full length, on the cell …; experiment: FACS competition, CHO-K1-hu4-1BB; labelled Bio-Hanke10F4 1.5 µg/ml fixed, competitor varied; remark: listed apart in the source

T2 sequence (Q07011 24-186, one chain of several): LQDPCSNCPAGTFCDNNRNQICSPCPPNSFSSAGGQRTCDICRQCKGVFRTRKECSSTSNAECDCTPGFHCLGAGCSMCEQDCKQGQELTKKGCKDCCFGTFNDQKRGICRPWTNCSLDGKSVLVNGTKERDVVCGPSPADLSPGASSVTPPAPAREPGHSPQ
T6 sequence (Q07011 24-186 limits assumed): as the sequence (Q07011 24-186, one chain of several) above

EC50 [1]: 1.8 µg/mL
B1: HKB6 (antibody, V domains shown)
VH: QVQLKESGPGLVAPSQSLSITCTVSGFSLTTYDISWIRQPPGKGLEWLGVIWTGGGTNYNSTFMSRLSINKDNSKSQVFLKMNSLQTDDTAIYYCVRVDYWGQGTSVTVSS
VL: DVVMTQTPLSLPVSLGDQASISCRSSQSLVHSNGNTYLHWFLQKPGQSPKLLIYKVSNRFPGVPDRFSGSGSGTDFTLKISRVEAEDLGVYFCSQNTHVPWTFGGGTKLEIKR

Kd [2]: 13.9 nM | koff [2]: 0.00241 s⁻¹ | kon [2]: 173000 M⁻¹ s⁻¹ | EC50 [3]: 1.81 µg/mL | EC50 (read off the curve) [4]: ~0.7 µg/mL | EC50 [5]: 0.0267 µg/mL | EC50 [6]: 1.77 µg/mL | EC50 (read off the curve) [7]: ~0.7 µg/mL | EC50 [8]: 0.0186 µg/mL | EC50 (read off the curve) [9]: ~0.7 µg/mL | EC50 (read off the curve) [10]: ~0.7 µg/mL | FACS signal of Bio-Hanke10F4 at (B:A) Ratio 0.05859375 [11]: 7260 | FACS signal of Bio-Hanke10F4 at (B:A) Ratio 0.234375 [11]: 6840 | FACS signal of Bio-Hanke10F4 at (B:A) Ratio 0.9375 [11]: 5000 | FACS signal of Bio-Hanke10F4 at (B:A) Ratio 3.75 [11]: 1740 | FACS signal of Bio-Hanke10F4 at (B:A) Ratio 15 [11]: 635 | FACS signal of Bio-Hanke10F4 at (B:A) Ratio 60 [11]: 230 | EC50 [1]: 1.6 µg/mL | FACS signal of Bio-4-1BBL at (B:A) Ratio 0.03906 [12]: 7700 | FACS signal of Bio-4-1BBL at (B:A) Ratio 0.15625 [12]: 7460 | FACS signal of Bio-4-1BBL at (B:A) Ratio 0.625 [12]: 6920 | FACS signal of Bio-4-1BBL at (B:A) Ratio 2.5 [12]: 5860 | FACS signal of Bio-4-1BBL at (B:A) Ratio 10 [12]: 4310 | FACS signal of Bio-4-1BBL at (B:A) Ratio 40 [12]: 3510 | FACS signal of Bio-Hanke10F4 at (B:A) Ratio 0.058593 [13]: 7260 | FACS signal of Bio-Hanke10F4 at (B:A) Ratio 0.23437 [13]: 6840 | FACS signal of Bio-Hanke10F4 at (B:A) Ratio 0.9375 [13]: 5000 | FACS signal of Bio-Hanke10F4 at (B:A) Ratio 3.75 [13]: 1740 | FACS signal of Bio-Hanke10F4 at (B:A) Ratio 15 [13]: 635 | FACS signal of Bio-Hanke10F4 at (B:A) Ratio 60 [13]: 230
B2: Hanke10F4 (antibody, human IgG4 S228P, kappa, V domains shown)
VH: QVQLQESGPGLVKPSETLSITCTVSGSSLTSYGVHWVRQPPGKGLEGLGVIWPGGSTNYNSALMSRLTISKDNSKSQVSLKMSSLTAADTAMYYCARVTGTWYFDVWGQGTTVTVSS
VL: DIQMTQSPSSLSASLGDRVTISCSASQGISNYLNWYQQKPDGTVKLLIYYTSTLHSGVPSRFSGSGSGTDFTLTISSLQPEDVATYYCQQYSKLPWTFGGGTKLEIKR
notes: Heavy chain type IgG4, light chain kappa; Humanized from hybridoma antibody 37G10F4, transformed from scFvB60103; also called humanized anti-human 4-1BB antibody Hanke10F4; Hanke10F4 monoclonal antibody
